# Source: patent publication US20170281792A1 (Genentech, published 2017)
# Positions count from the first letter of the chain named.
# T1: gD epitope-tagged rat mesothelin expressed on cells (rat, UniProt Q9ERA7 298-582)
# T1 sequence: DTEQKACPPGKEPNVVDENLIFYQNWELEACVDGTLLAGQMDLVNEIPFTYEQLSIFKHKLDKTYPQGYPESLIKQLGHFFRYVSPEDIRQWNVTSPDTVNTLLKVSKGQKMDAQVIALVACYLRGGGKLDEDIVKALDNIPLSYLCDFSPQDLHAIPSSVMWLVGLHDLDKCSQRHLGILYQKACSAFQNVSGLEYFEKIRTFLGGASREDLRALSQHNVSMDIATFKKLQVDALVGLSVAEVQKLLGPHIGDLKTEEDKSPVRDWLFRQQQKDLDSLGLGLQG
# T2: gD epitope-tagged cynomolgus monkey mesothelin expressed on cells (construct #383) (cynomolgus monkey)
# T2 construct: also called cyno mesothelin
# T2 chain: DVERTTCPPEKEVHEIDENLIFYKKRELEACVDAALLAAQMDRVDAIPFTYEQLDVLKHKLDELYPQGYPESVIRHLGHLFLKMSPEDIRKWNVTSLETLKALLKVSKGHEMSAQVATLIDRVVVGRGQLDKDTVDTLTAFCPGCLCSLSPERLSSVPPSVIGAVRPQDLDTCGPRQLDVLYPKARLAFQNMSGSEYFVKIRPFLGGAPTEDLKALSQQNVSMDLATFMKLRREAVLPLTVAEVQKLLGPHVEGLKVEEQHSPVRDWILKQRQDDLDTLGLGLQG
# T3: gD epitope-tagged mouse mesothelin expressed on cells (construct #385) (mouse, UniProt Q61468 298-582)
# T3 sequence: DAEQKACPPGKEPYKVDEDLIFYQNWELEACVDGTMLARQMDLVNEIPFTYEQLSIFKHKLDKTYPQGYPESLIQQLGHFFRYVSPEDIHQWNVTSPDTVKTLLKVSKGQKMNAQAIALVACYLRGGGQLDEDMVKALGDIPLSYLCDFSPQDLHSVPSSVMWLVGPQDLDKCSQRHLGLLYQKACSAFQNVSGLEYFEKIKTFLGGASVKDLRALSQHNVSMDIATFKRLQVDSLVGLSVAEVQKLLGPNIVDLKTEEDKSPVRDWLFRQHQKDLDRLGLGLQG
# T4: endogenous rat mesothelin on the normal pleural cell line 4/4-RM4 (rat, UniProt Q9ERA7 298-582)
# T4 sequence: T1 sequence
# B1: 22A10 graft (antibody, V domains shown)
# VH: EVQLVESGGGLVQPGGSLRLSCAASGFTFSDYFMSWVRQAPGKGLEWVATISNGGTYTYYPDSVKGRFTISRDNSKNTLYLQMNSLRAEDTAVYYCARFDGYYFDYWGQGTLVTVSS
# VL: DIQMTQSPSSLSASVGDRVTITCRASQDISNYLNWYQQKPGKAPKLLIYYTSRLHSGVPSRFSGSGSGTDFTLTISSLQPEDFATYYCQQGNTLPYTFGQGTKVEIK
# notes: also called hu22A10graft; 22A10 CDR graft
# B2: humanized monoclonal antibody 22A10.v83 (antibody, V domains shown)
# VH: B1 VH with Y103I
# VL: DIQMTQSPSSLSASVGDRVTITCRASQDISNYLNWYQQKPGKAPKLLIYYTSRLHSGVPSRFSGSGSGTDFTLTISSLQPEDFATYYCQQGNTLPYTFGQGTKVEIKR
# notes: also called h22A10.v83; hu22A10.v83
# B3: chimeric 7D9 (antibody, V domains shown)
# VH: QVQLQQSGAELAKPGASVKMSCKASGYTFTTYWMHWVKQRPGQGLEWIGYIRPSTGYTEYNQKFKDKATLTADKSSSTAYMQLSSLTSEDSTVYYCARSRWLLDYWGQGTSLTVS
# VL: DIMMTQSPSSLAVSAGEKVTMSCKSSQSVLYSSNQKNYLAWFQQKPGQSPKLLIYWASTRESGVPDRFTGSGSGTDFTLTISSVQAEDLAVYFCHQYLSSYTFGGGTKVEIK
# notes: also called ch7D9; mu7D9 (formatted as a chimeric 7D9)
# B4: 7D9.v5 (antibody, V domains shown)
# VH: EVQLVESGGGLVQPGGSLRLSCAASGYTFTTYWMHWVRQAPGKGLEWVGYIRPSTGYTEYNQKFKDRFTISADTSKNTAYLQMNSLRAEDTAVYYCARSRWLLDYWGQGTLVTVS
# VL: DIQMTQSPSSLSASVGDRVTITCKSSQSVLYSSNQKNYLAWFQQKPGKAPKLLIYWASTRESGVPSRFSGSGSGTDFTLTISSLQPEDFATYYCHQYLSSYTFGQGTKVEIK
# B5: 7D9.v1 (antibody, V domains shown)
# VH: B4 VH
# VL: B4 VL with F42Y
# notes: also called direct-graft 7D9.v1
# B6: 7D9.v6 (antibody, V domains shown)
# VH: B4 VH
# VL: B4 VL with F42Y, Y93F
# How the values were obtained:
# [1] = target: T1, gD epitope-tagged rat mesothelin …; assay: Scatchard analysis on BJAB cells stably expressing gD-tagged rat mesothelin
# [2] = target: T2, gD epitope-tagged cynomolgus monkey …; assay: Scatchard analysis on BJAB cells stably expressing gD-tagged cyno mesothelin
# [3] = target: T3, gD epitope-tagged mouse mesothelin …; assay: FACS on stably transfected 293 cells
# Procedure: Monoclonal antibodies were tested to determine if they cross-react with mesothelin from species other than human. […] Shaded residues are identical between at least two species. Unshaded residues differ between at least two of the four species. […] Anti-gD staining verified that mouse mesothelin was indeed expressed.
# [4] = target: T5, human mesothelin on cells (endogenous on tumour cell lines and tissue, or stably expressed on A431 or HT1080 … (human, UniProt Q13421 296-580)); assay: Scatchard; endogenous human mesothelin on cell lines
# T5 construct: also called endogenous mesothelin; endogenous human mesothelin
# Procedure: (§1) The data was analyzed with non-linear regression curve fitting in the New Ligand program (Genentech, Inc., South San Francisco, Calif.) to estimate Kd values (Munson et al., Anal. Biochem., 107 220-239 (1980)).
# [5] = target: T4, endogenous rat mesothelin on the normal …; assay: Scatchard on the normal rat pleural cell line 4/4-RM4
# Procedure: as §1
# [6] = target: T6, gD epitope-tagged human mesothelin expressed on cells (construct #387) (human, UniProt Q13421 296-580); assay: Scatchard, 125I-labelled antibody on stably transfected 293 cells
# T6 construct: also called gD-human mesothelin; gD-tagged human mesothelin
# Procedure: as §1
# [7] = target: T1, gD epitope-tagged rat mesothelin …; assay: as above
# Procedure: as §1
# [8] = target: T6, gD epitope-tagged human mesothelin …; assay: Scatchard, 125I-labelled antibody on stably transfected BJAB cells
# Procedure: as §1
# [9] = target: T1, gD epitope-tagged rat mesothelin …; assay: as above
# Procedure: as §1
# [10] = target: T6, gD epitope-tagged human mesothelin …; assay: Scatchard, 125I-labelled antibody on stably transfected HT1080 cells
# Procedure: as §1
# [11] = target: T5, human mesothelin on cells (endogenous …); assay: Scatchard analysis (125I-labelled antibody) on HPAC cells, endogenous mesothelin
# Procedure: as §1
# [12] = target: T5, human mesothelin on cells (endogenous …); assay: Scatchard analysis (125I-labelled antibody) on AsPC1 cells, endogenous mesothelin
# Procedure: as §1
# [13] = target: T5, human mesothelin on cells (endogenous …); assay: Scatchard analysis (125I-labelled antibody) on Capan2 cells, endogenous mesothelin
# Procedure: as §1
# [14] = target: T5, human mesothelin on cells (endogenous …); assay: Scatchard analysis (125I-labelled antibody) on OvCar3 cells, endogenous mesothelin
# Procedure: as §1
# [15] = target: T5, human mesothelin on cells (endogenous …); assay: Scatchard analysis (125I-labelled antibody) on HPAF-II cells, endogenous mesothelin
# Procedure: as §1
# [16] = target: T2, gD epitope-tagged cynomolgus monkey …; assay: Scatchard analysis (125I-labelled antibody), row 'Cyno 293', stably transfected cells
# Procedure: as §1
# [17] = target: T5, human mesothelin on cells (endogenous …); assay: Scatchard analysis (125I-labelled antibody) on OvCar3x2.1 cells, endogenous mesothelin
# Procedure: as §1
# [18] = target: T2, gD epitope-tagged cynomolgus monkey …; assay: Scatchard analysis (125I-labelled antibody), row 'Cyno BJAB', stably transfected cells
# Procedure: as §1
# [19] = target: T2, gD epitope-tagged cynomolgus monkey …; assay: Scatchard analysis (125I-labelled antibody), row 'Cyno HT1080', stably transfected cells
# Procedure: as §1
# [20] = target: T7, E. coli derived recombinant human mesothelin (human, UniProt Q13421 296-580); assay: Biacore-2000, IgG over immobilised E. coli derived human mesothelin, 1:1 fit
# T7 construct: not shown: N-terminal unizyme His (HQ)-tag
# Procedure: (§2) 7D9 variants were expressed as IgG by CHO transient transfection. IgG was purified with protein G affinity chromatography. The affinity of each 7D9 IgG variant for human mesothelin was determined by surface plasmon resonance using a BIACORE™-2000. BIACORE™ research grade CM5 chips were immobilized with approximately 110 RU of E. coli derived recombinant human mesothelin using the amine coupling kit from BIACORE™. […] Each sample was analyzed with 5-minute association and 3.5-minute dissociation. After each injection the chip was regenerated using 10 mM Glycine pH 1.7. Binding response was corrected by subtracting the RU from a flow cell with an irrelevant IgG immobilized at similar density. A 1:1 Languir model of simultaneous fitting of kₒₙ and koff was used for kinetics analysis.
# [21] = target: T7, E. coli derived recombinant human …; assay: SPR (Biacore), IgG over immobilized E. coli derived human mesothelin
# Procedure: as §2
# The human acceptor framework used for humanization of 7D9 is based on the human VL kappa I consensus (VLKI) and the acceptor VH framework VHATA, which differs from the human VH subgroup III consensus (VHIII) at 3 positions: R71A, N73T, and L78A (Carter et al., Proc. Natl. Acad. Sci. USA 89:4285 (1992)). The VL and VH domains of murine 7D9 were aligned with the human VLKI and VHIII domains; hypervariable regions were identified and grafted into the human acceptor framework to generate 7D9.v1 (FIGS. 4 and 5).
# T7 sequence (Q13421 other isoform, or with tags, fused parts or gaps): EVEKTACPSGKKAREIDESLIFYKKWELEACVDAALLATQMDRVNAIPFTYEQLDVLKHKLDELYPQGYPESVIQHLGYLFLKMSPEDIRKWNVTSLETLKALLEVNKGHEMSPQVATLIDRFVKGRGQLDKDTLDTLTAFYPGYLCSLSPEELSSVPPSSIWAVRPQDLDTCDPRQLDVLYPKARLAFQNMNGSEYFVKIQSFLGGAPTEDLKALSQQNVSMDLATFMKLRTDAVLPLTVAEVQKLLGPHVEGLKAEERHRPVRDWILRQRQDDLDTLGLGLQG
# T6 sequence (Q13421 other isoform, or with tags, fused parts or gaps): as above
# T5 sequence (Q13421 other isoform, or with tags, fused parts or gaps): as above
binder,measurement,setting,value
B1,Kd,[1],1.9 nM
same,Kd,[2],1 nM
B2,binding result,[3],no binding (tested: 10 µg/ml)
same,Kd,[4],9 to 10 nM
same,Kd,[5],6.2 nM
same,Kd,[6],2.7 nM
same,Kd,[7],7.3 nM
same,Kd,[8],1.8 nM
same,Kd,[9],2.7 nM
same,Kd,[10],6.2 nM
same,Kd,[2],1.3 nM
same,Kd,[11],9.4 nM
same,Kd,[12],9.3 nM
same,Kd,[13],4.2 nM
same,Kd,[14],9.2 nM
same,Kd,[15],10.4 nM
same,Kd,[16],4.3 nM
same,Kd,[17],9 nM
same,Kd,[18],1.3 nM
same,Kd,[19],6.4 nM
B3,Kd,[20],1.84 nM
B4,Kd,[20],3.49 nM
B5,fold decrease in affinity relative to mu7D9 (chimeric 7D9),[21],~2 fold
same,Kd,[20],3.98 nM
B6,Kd,[20],4.08 nM
